Tests used:
[1] = target: T1, PKB-sub peptide (GSK3 consensus peptide) CKRPRAASFAE
T1 chain: CKRPRAASFAE

[2] = target: PDK1 peptide (PDKtide) …

B1: GST-SGK2 fusion protein (human SGK2 with N-terminal Glutathione S-transferase tag, expressed in Hi5 insect cells) (protein)
chain: MNSSPAGTPSPQPSRANGNINLGPSANPNAQPTDFDFLKVIGKGNYGKVLLAKRKSDGAFYAVKVLQKKSILKKKEQSHIMAERSVLLKNVRHPFLVGLRYSFQTPEKLYFVLDYVNGGELFFHLQRERRFLEPRARFYAAEVASAIGYLHSLNIIYRDLKPENILLDCQGHVVLTDFGLCKEGVEPEDTTSTFCGTPEYLAPEVLRKEPYDRAVDWWCLGAVLYEMLHGLPPFYSQDVSQMYENILHQPLQIPGGRTVAACDLLQSLLHKDQRQRLGSKADFLEIKNHVFFSPINWDDLYHKRLTPPFNPNVTGPADLKHFDPEFTQEAVSKSIGCTPDTVASSSGASSAFLGFSYAPEDDDILDC
For B1, the “in vitro kinase assay, 32P incorporation into peptide (purified SGK2)” value [1] was “PKB-sub had significant incorporation of ^32P”, the “in vitro kinase assay, PDK1-activated versus non-activated SGK2” value [1] was “the PDK1 activated SGK2 had significantly higher kinase activity compared to non-activated SGK2” and the “in vitro kinase assay, 32P incorporation into peptide (purified SGK2)” value [2] was “addition of same amount of control peptide (PDK1 peptide) had no significant incorporation”.

— patent US20020123056
